Here are results for three molecules from PMC10338489, “Structural and photophysical characterization of the small ultra-red fluorescent protein” (Nature Communications, 2023).

One data set addresses smURFP H61R. In words: native gel or EMSA; NativePAGE 4-16% Bis-Tris gel, 0.27 μg purified protein per lane, without and with 100 mM DTT; Coomassie stain and far-red fluorescence; homodimeric smURFP used as a size reference. (In general: A gel shift assay detects complexes by their altered migration in electrophoresis.)
Data set [1] concerns the molecule itself. In words: cell-based or functional assay.
Data set [2] concerns the molecule itself. Nature of the data set: crystal structure; apo-smURFP crystallised from smURFP with 20% BV attached; hanging drop, 20 °C, 4 M Na nitrate + 0.1 M NaOAc (pH 4.6); 2.8 Å, space group C222(1), six protomers (three homodimers) in the asymmetric unit.

“And” between values parts separate entries of the source, which are not always exact repeats. Identical values can stand only once.

The term stoichiometry N denotes a count of units in the complex or per binding partner. With smURFP H61R, in the data set with smURFP H61R, the stoichiometry N is 2 and > 2. With CytERM-mGFP, in the data set with CytERM-mGFP, the OSER assay in HEK293A cells expressing CytERM-mGFP: ratio of the MFI of the OSER structure to the MFI of the nuclear envelope, after 24 and 48 h is below 2.3.

B1: small Ultra-Red Fluorescent Protein (smURFP) (other)
chain: MKTSEQRVNIATLLTENKKKIVDKASQDLWRRHPDLIAPGGIAFSQRDRALCLRDYGWFLHLITFCLLAGDKGPIESIGLISIREMYNSLGVPVPAMMESIRCLKEASLSLLDEEDANETAPYFDYIIKAMS
modifications: biliverdin (BV) covalently attached to C52 in part of the protein (20% BV with high expression); the crystal holds apo-smURFP
Regarding B1, the “OSER assay in HEK293A cells expressing CytERM-smURFP: ratio of the MFI of the OSER structure to the MFI of the nuclear envelope, after 24 h (4.8) and 48 h (3.7)” value in data set [1] was 4.8. Moreover, in data set [2], the “stoichiometry N” value was 2.
